We go through 3 substances from article doi:10.1101/2025.07.14.664805.

This experiment concerns the target B. mori CS-1 (Centromeric Subunit protein 1) (Bombyx mori). Kind of experiment: SEC-MALS. For orientation: Size exclusion chromatography separates by hydrodynamic size, large species first.

By stoichiometry N is commonly meant a count of units in the complex or per binding partner.

“B. mori CS-2 (Centromeric Subunit protein 2) (natural protein)” registered a stoichiometry N of 1.
For “B. mori CS-3 (Centromeric Subunit protein 3) (natural protein)”, the stoichiometry N was 1.
In the case of “B. mori CS-4 (Centromeric Subunit protein 4) (natural protein)” it was 1.
